T1: CEA (carcinoembryonic antigen, Biodesign Intl., Saco, Me.) (UniProt P06731 35-685)
T1 construct: also called immobilized CEA
T1 sequence: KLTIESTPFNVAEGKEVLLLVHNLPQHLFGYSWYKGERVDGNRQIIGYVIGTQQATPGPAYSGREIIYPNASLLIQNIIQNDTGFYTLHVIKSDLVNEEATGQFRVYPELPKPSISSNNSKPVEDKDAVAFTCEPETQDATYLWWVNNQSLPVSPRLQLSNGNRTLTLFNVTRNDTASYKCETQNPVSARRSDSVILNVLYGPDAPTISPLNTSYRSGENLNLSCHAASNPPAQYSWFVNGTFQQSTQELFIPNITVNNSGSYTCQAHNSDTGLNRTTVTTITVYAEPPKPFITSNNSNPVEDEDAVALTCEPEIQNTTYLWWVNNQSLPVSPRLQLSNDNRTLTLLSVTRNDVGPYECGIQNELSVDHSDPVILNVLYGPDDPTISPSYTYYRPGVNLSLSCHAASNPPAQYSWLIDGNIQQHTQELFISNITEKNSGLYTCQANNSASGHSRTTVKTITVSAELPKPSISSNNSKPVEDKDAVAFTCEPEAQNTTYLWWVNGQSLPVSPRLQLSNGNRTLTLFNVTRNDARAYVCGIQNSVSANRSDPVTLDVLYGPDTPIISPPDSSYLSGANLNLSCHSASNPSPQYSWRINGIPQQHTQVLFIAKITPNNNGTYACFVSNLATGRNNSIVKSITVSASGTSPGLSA

B1: NA08.15 (CAB1.4) (scFv)
chain: QVQLQQSGAELVKSGGSVKLSCTASGFNIKDSYMHWVRQGPEQGLEWIGWIDPENGDTEYAPKFQGKATFTTDTSSNTAYLQLSSLTSEDTAVYYCNEGTPTGPYYFDYWGQGTTVTVSSGGGGSGGGGSGGGGSENVLTQSPAIVSASPGEKVTITCSASSSVSYMHWFQQKPGTSPKLVIYDTSNLASGVPARFSGSGSGTSYSLTISRMEAEDAATYYCQQRDSYPLTFGAGTKLELKRAATPVSEKQLAEVVANTITPLMKAQSVPGMAVAVIYQGKPHYYTFGKADIAANKPVTPQTLFELGSISKTFTGVLGGDAIARGEISLDDAVTRYWPQLTGKQWQGIRMLDLATYTAGGLPLQVPDEVTDNASLLRFYQNWQPQWKPGTTRLYANASIGLFGALAVKPSGMPYEQAMTTRVLKPLKLDHTWINVPKAEEAHYAWGYRDGKAVRVSPGMLDAQAYGVKTNVQDMANWVMANMAPENVADASLKQGIALAQSRYWRIGSMYQGLGWEMLNWPVEANTVVETSFGNVALAPLPVAEVNPPAPPVKASWVHKTGSTGGFGSYVAFIPEKQIGIVMLANTSYPNPARVEAAYHILEALQ
B2: NA05.6 (CAB1.1) (scFv)
chain: B1 chain with Q3K, V37L, V146M, D184S, D226S
notes: also called pNA05.6
B3: NA05.12 (scFv)
chain: B1 chain with K13R, S14P, G16T, V181W, D184S, D226S
B4: NA05.8 (scFv)
chain: B1 chain with Q3K, G16T, V37L, V146M, F170Y, V181W, D184S, D226S, A234G
B5: NA05.9 (scFv)
chain: B1 chain with K13R, S14P, G16T, E42G, E136Q, D184S, D226S, A234G
B6: NA05.15 (scFv)
chain: B1 chain with Q3K, K13R, G16T, V37L, F170Y, V181W, D184S, A194D, D226S
B7: NA05.10 (scFv)
chain: B1 chain with K13R, G16T, V146M, F170Y, D184S, D226S
B8: clone pSW134.1 (scFv)
chain: B1 chain with T100L, F107N
B9: clone pSW129.5 (scFv)
chain: B1 chain with T100L, T102L
B10: NA08.9 (scFv)
chain: B1 chain with Y166A, D184S, D226S
B11: NA08.24 (scFv)
chain: B1 chain with T102D, D184S
B12: NA08.17 (scFv)
chain: B1 chain with W50H, D226S
B13: NA08.51 (scFv)
chain: B1 chain with P104H, Y166A, D184S, D226S
B14: NA08.1 (scFv)
chain: B1 chain with W50H, Y166A, D184S, D226S
B15: NA08.4 (scFv)
chain: B1 chain with T100D, D184S, S190D, D226S
B16: NA08.3 (scFv)
chain: B1 chain with D184S, S190D
B17: NA08.12 (scFv)
chain: B1 chain with T102H, Y166A, D184S
B18: NA08.13 (scFv)
chain: B1 chain with Q65H
B19: NA08.45 (scFv)
chain: B1 chain with T102D, Y166A, D184S, D226S
B20: NA08.64 (scFv)
chain: B1 chain with Q65D, Y166A, D184S, D226S
B21: NA08.14 (scFv)
chain: B1 chain with P101D, D184S, D226S
B22: NA06.2 (scFv)
chain: B1 chain with Q3K, E42G, V146M, D184S, A194D, D226S
B23: NA06.4 (scFv)
chain: B1 chain with Q3K, D184S, D226S
B24: NA06.10 (scFv)
chain: B1 chain with Q3K, D184S, A194D, D226S
B25: NA06.12 (scFv)
chain: B1 chain with Q3K, E136Q, V146M, D184S, D226S
B26: NA06.11 (scFv)
chain: B1 chain with V146M, D184S, A194D, D226S
B27: CAB1.7 (clone pSW155.17) (scFv)
chain: B1 chain with T100L, T102L, P104A, Y105I, F107N, S163A, S165Y, Y166A, K241D
notes: scFv-BLA fusion

Numbering of substitutions follows the chain as printed.

Here are results for 27 molecules from patent US20110160440A1 (GENENCOR INTERNATIONAL, published 2011).

One assay concerns the target T1, CEA (carcinoembryonic antigen, …). The assay is described as follows: CEA-coated plate, binding curves at pH 6.5 and pH 7.4, bound BLA activity.
Regarding B1, the binding result was “binds”.

The next assay shares this target. Description: CEA-coated plate, bound BLA activity (nitrocefin), cell lysate.
With B2, the binding result is reported as “binds”.
Still for that read-out and setting: as for B3, the entry is “binds”.
On the same count and under the same terms, the entry for B4 is “binds”; for B5 it is “binds”.
As for B6, the binding result was “binds”.
On the same count and under the same terms, as for B7, the entry is “binds”.

A further assay has the same target. Description: screen of H3 site saturation mini-libraries for improved affinity.
B8: the binding result is reported as “binds”.
Still for that read-out and setting: as for B9, the entry is “binds”.

Another assay shares this target. Description: CEA-coated plate at pH 6.5 and pH 7.4, bound BLA activity.
As to B10, the binding result was “binds”.
The same measure, in the same setting: as for B11, the entry is “binds”; as for B12, “binds”.
Still for that read-out and setting: the entry for B13 is “binds”; for B14 it is “binds”.
Still for that read-out and setting: the entry for B15 is “binds”; for B16 it is “binds”.
On to B17, for which the binding result is listed as “binds”.
The same measure, in the same setting: the entry for B18 is “binds”; for B19 it is “binds”; for B20 it is “binds”.
In the case of B21, the binding result was “binds”.

Another assay has the same target. Description: CEA-coated plate after thermolysin treatment of the lysate, bound BLA activity.
As to B22, the binding result is “binds”.
Still for that read-out and setting: the entry for B23 is “binds”; for B24 it is “binds”.
Still for that read-out and setting: as for B25, the entry is “binds”.
Still for that read-out and setting: the entry for B26 is “binds”.

The target is the same in the next assay. Description: screen of library SW155.
For B27, the binding result is listed as “binds”.
